Data as given in the nanobody polyreactivity screen of Harvey et al. (2022).

Assay: yeast display, Sf9 membrane polyspecificity reagent, FACS + sequencing; frameworks hold sequencing errors
Summary of the method: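 Sorting gates, low and high (top ~1%), were placed on anti-HA fluorescence to track expression and on streptavidin fluorescence to track reagent binding. A clone's polyreactivity label is taken from the gate it came out of. The reagent was 10% biotinylated, detergent-solubilized Sf9 membrane, applied for 1 hour at 4 °C to galactose-induced yeast display cells.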

Sequence | polyreactivity (PSR sort gate)
QVQLVESGGGLVQAGGSLRISCAASGFIFYYAMGWYRQAPGKERELVAAISSGSSTYADSVKGRFTISRDNAKNTVYLQMNSMKPEDTAVYYCAAKTQNAYYWGQGTQVTVSS | low polyreactivity
QVQLVESGGGLVQAGGSLRLSCAASGRIIWGYAMGWYRQAPGKERELVAGITYSGGSTYYADSVKGRFTISRDNAKNTVYLQMNSLKPEDTAVYYCAAAKSYRSGSWYEYWGQGTQVTVSS | high polyreactivity
PVQLVESGGGLVQAGGSLRLSCSSSGRIFASNAMGWYRQPPGKDRELVAAIDQGGGSTYYADSVKGRFTISRDNAKITVYLQMNSLKPEDTAVYYCAADYITAYPRLYNYWGLGTQVTVSS | low polyreactivity
QVQLVESGGGLVQAGGSLRLSCAASGRILKYNAMGWYRQAPGKERELVAAISYRGGSTYYADSVKGRFTISRDNAKNTVYLQMNSLKPEDTAVYYCNAGGGILNGPLFDYWGQGTQVTVSS | low polyreactivity
QVQLVETGGGLVQAGGSLRLSCAASGSIFYGYAMGWYSQSHGQEREFVAAITFSATSTYYADSVKGRFTISRDNAKNPVYLQMNSLKPEDTAVYYCAAVIGDWQYQYYYWGQGTLVTVSS | low polyreactivity
QVQLVESGGGLVQAGGSLRLSCAASGSIFYGYAMGWYIQAPGKERELVAAISGNGGSTYFADSVKGRFTISRDNAKNTVYLQMNSLKTEDTAVYYCAVEVYHYGYEYDYWGQGTQVTVSS | high polyreactivity
QVQLVESGGGLVQAGGSLRLSCAASGFILDYNTMGWYRQAPGNERELVAAISSSGDTTYYADSVKGRFTISRDNAKNTVYLQMNSLKPEDTAVYYCAREYGDGYEYWGQGTQVTVSS | low polyreactivity
QVQLVESGGGLVQAGGSIRLTCAASGSIFVFYAMGWYRQAPGKEREFVATITWSGTSTYYADSVKGRFSISRDNAKNTVYLQMNSLKPEDTAVYYCAARYLGGRRSGDYSRYYWGQGTQVTVSS | high polyreactivity
QVQLVESGGCLVQAGGSLRFSCAASGIIFYGYAMGWYRQAPGKERELVAAISERGGSTYYADSVKGRFTISRDNAKNTVYLQMNSLKPEDTAVYYCAVDYYYLMYWGQGTQVTVSS | low polyreactivity
QVQLEESGGGLVQAGGSLRLSCAASGITSPAYAMGWYRQAPGKEREFVAAISSSGGSTYYADSVKGRFTISRDNAKNTVYLQMNSLKPEDTAVYYCAVRGRISSVSRYGYWGQGTQVTVSS | high polyreactivity
QVQLVESGGGLVQAGGSLRLSCAASGIIFRRYAMGWYRQAPGKERELVATITWSGGSTYYADSVKGRFTISRDNAKNTVYLQMNSLKPEDTAVYYCAKRGSRLYRLDYWGQGTQVTVSS | high polyreactivity
QVQLVESGGGLVQAGGSLRLSCAASGRTFYTYGMGWYRQAPGKERELVAAITETGDSTYYADSVKGRFTISRDNAKNTVYLQMNSLKPEDTAVYYCAADYRAPLDYWGQGTQVTVSS | low polyreactivity
QVQLVESGGGLVQAGGRLRLSCAASGLNFYLYAMGWYTQAPGKERELVATITSAGRTNSADTVKGRFTISRDNAKNTVYLERNSLKPEYTAVYYCIRDVRFVGPSGFDYWGQGTEVTVSS | high polyreactivity
QVQLVESGGGLVQAGGSLRLSCAASGSTFYHNVMGWYRQAPGKERELVASIYRGGSTYYADSVKGRFTISRDNAKNTVYLQMNSLKPEDTAVYYCAKEYKSLWWDGRMNYWGQGTQVTVSS | low polyreactivity
QVQLVESGGGLVQAGGSLRLSCAASGGIFERNDMGWYRQAPGKERELVAGISSVGSTNYADSVKGRFTISRDNAKNTVYLQMNSLKPEDTAVYYCAAPTKREFRYLRYDYWGQGTQVTVSS | low polyreactivity
QVQLVESGGGLVQAGGSLRLSCAASGSTFDANAMGWYRQAPGKERELVADITVRDGSTYYADSVKGRFTISRDNAKNTVYLQMNSLKPEDTAVYYCNAGRYTGGYSPGYGYWGLGTQVTVSS | low polyreactivity
QLQLVESGGGLVQAGGSLRLSCAASGFIFSTYAMGWYRQAPGKERELVAAISRSGGSTYYADSVKGRFTISRDNAKNTVYLQMNSLKPEDTAVYYCNLSQAAFRTGYDYWGQGTQVTVSS | high polyreactivity
